According to patent publication US7790365B2, “Assays for modulators of parkin activity using S5a as a parkin substrate” (Elan Pharma International Limited, priority 2007, dated 2010):
“Also recorded” adds a separate entry of the source.

B1: GST-parkin: GST fusion of parkin, RING class E3 ligase (protein)
chain: MIVFVRFNSSHGFPVEVDSDTSIFQLKEVVAKRQGVPADQLRVIFAGKELRNDWTVQNCDLDQQSIVHIVQRPWRKGQEMNATGGDDPRNAAGGCEREPQSLTRVDLSSSVLPGDSVGLAVILHTDSRKDSPPAGSPAGRSIYNSFYVYCKGPCQRVQPGKLRVQCSTCRQATLTLTQGPSCWDDVLIPNRMSGECQSPHCPGTSAEFFFKCGAHPTSDKETSVALHLIATNSRNITCITCTDVRSPVLVFQCNSRHVICLDCFHLYCVTRLNDRQFVHDPQLGYSLPCVAGCPNSLIKELHHFRILGEEQYNRYQQYGAEECVLQMGGVLCPRPGCGAGLLPEPDQRKVTCEGGNGLGCGFAFCRECKEAYHEGECSAVFEASGTTTQAYRVDERAAEQARWEAASKETIKKTTKPCPRCHVPVEKNGGCMHMKCPQPQCRLEWCWNCGCEWNRVCMGDHWFDV
modifications: left off: a dimerising Fc or GST
notes: GST fusion of parkin, RING class E3 ligase
B2: GST-Siah2: GST fusion of Seven in absentia homolog 2, RING E3 ligase (protein)
chain: MSRPSSTGPSANKPCSKQPPPQPQHTPSPAAPPAAATISAAGPGSSAVPAAAAVISGPGGGGGAGPVSPQHHELTSLFECPVCFDYVLPPILQCQAGHLVCNQCRQKLSCCPTCRGALTPSIRNLAMEKVASAVLFPCKYATTGCSLTLHHTEKPEHEDICEYRPYSCPCPGASCKWQGSLEAVMSHLMHAHKSITTLQGEDIVFLATDINLPGAVDWVMMQSCFGHHFMLVLEKQEKYEGHQQFFAIVLLIGTRKQAENFAYRLELNGNRRRLTWEATPRSIHDGVAAAIMNSDCLVFDTAIAHLFADNGNLGINVTISTCCP
modifications: left off: a dimerising Fc or GST
notes: GST fusion of Seven in absentia homolog 2, RING E3 ligase
B3: His-CHIP: His-tagged carboxyl terminus of Hsp70-interacting protein, U-box E3 ligase (protein)
chain: MKGKEEKEGGARLGAGGGSPEKSPSAQELKEQGNRLFVGRKYPEAAACYGRAITRNPLVAVYYTNRALCYLKMQQHEQALADCRRALELDGQSVKAHFFLGQCQLEMESYDEAIANLQRAYSLAKEQRLNFGDDIPSALRIAKKKRWNSIEERRIHQESELHSYLSRLIAAERERELEECQRNHEGDEDDSHVRAQQACIEAKHDKYMADMDELFSQVDEKRKKRDIPDYLCGKISFELMREPCITPSGITYDRKDIEEHLQRVGHFDPVTRSPLTQEQLIPNLAMKEVIDAFISENGWVEDY
modifications: left off: small tags and cut ends
B4: GST-Murf1: GST fusion of Muscle-specific RING finger protein 1, RING E3 ligase (protein)
chain: MDYKSSLIQDGNPMENLEKQLICPICLEMFTKPVVILPCQHNLCRKCANDIFQAANPYWTSRGSSVSMSGGRFRCPTCRHEVIMDRHGVYGLQRNLLVENIIDIYKQECSSRPLQKGSHPMCKEHEDEKINIYCLTCEVPTCSMCKVFGIHKACEVAPLQSVFQGQKTELNNCISMLVAGNDRVQTIITQLEDSRRVTKENSHQVKEELSQKFDTLYAILDEKKSELLQRITQEQEKKLSFIEALIQQYQEQLDKSTKLVETAIQSLDEPGGATFLLTAKQLIKSIVEASKGCQLGKTEQGFENMDFFTLDLEHIADALRAIDFGTDEEEEEFIEEEDQEEEESTEGKEEGHQ
modifications: left off: a dimerising Fc or GST
notes: GST fusion of Muscle-specific RING finger protein 1, RING E3 ligase
B5: GST-Nedd4: GST fusion of Nedd4, HECT E3 ligase (protein)
chain: MATCAVEVFGLLEDEENSRIVRVRVIAGIGLAKKDILGASDPYVRVTLYDPMNGVLTSVQTKTIKKSLNPKWNEEILFRVHPQQHRLLFEVFDENRLTRDDFLGQVDVPLYPLPTENPRLERPYTFKDFVLHPRSHKSRVKGYLRLKMTYLPKTSGSEDDNAEQAEELEPGWVVLDQPDAACHLQQQQEPSPLPPGWEERQDILGRTYYVNHESRRTQWKRPTPQDNLTDAENGNIQLQAQRAFTTRRQISEETESVDNRESSENWEIIREDEATMYSNQAFPSPPPSSNLDVPTHLAEELNARLTIFGNSAVSQPASSSNHSSRRGSLQAYTFEEQPTLPVLLPTSSGLPPGWEEKQDERGRSYYVDHNSRTTTWTKPTVQATVETSQLTSSQSSAGPQSQASTSDSGQQVTQPSEIEQGFLPKGWEVRHAPNGRPFFIDHNTKTTTWEDPRLKIPAHLRGKTSLDTSNDLGPLPPGWEERTHTDGRIFYINHNIKRTQWEDPRLENVAITGPAVPYSRDYKRKYEFFRRKLKKQNDIPNKFEMKLRRATVLEDSYRRIMGVKRADFLKARLWIEFDGEKGLDYGGVAREWFFLISKEMFNPYYGLFEYSATDNYTLQINPNSGLCNEDHLSYFKFIGRVAGMAVYHGKLLDGFFIRPFYKMMLHKPITLHDMESVDSEYYNSLRWILENDPTELDLRFIIDEELFGQTHQHELKNGGSEIVVTNKNKKEYIYLVIQWRFVNRIQKQMAAFKEGFFELIPQDLIKIFDENELELLMCGLGDVDVNDWREHTKYKNGYSANHQVIQWFWKAVLMMDSEKRIRLLQFVTGTSRVPMNGFAELYGSNGPQSFTVEQWGTPEKLPRAHTCFNRLDLPPYESFEELWDKLQMAIENTQGFDGVD
modifications: left off: a dimerising Fc or GST
notes: GST fusion of Nedd4, HECT E3 ligase

How the values were obtained:
S5a [1] = experiment: thermal denaturation of E3 ligases (S5a ubiquitination after pre-incubation); assay type: biochemical; settings: for Thermal Denaturation Temperature (temperature at which approximately 50% of activity was lost): E3 pre-incubated 90 minutes at 4° C. to 60° C., then S5a ubiquitination 60 minutes at 37° C.
Experimental: To characterize the thermal denaturation properties E3 ligases, the E3 was pre-incubated for 90 minutes at a temperature ranging from 4° C. to 60° C. (Mdm2 and Nedd4 at 4, 37, 45, 50 and 60° C.; Murf1 at 4, 37, 50, 60, 70 and 80° C.; E6AP at 37, 39, 41, 43, and 45° C. At 90 minutes, a pre-mix was made containing 50 nM E1, 1 mM Mg-ATP, 5 μM UbcH7 (UbcH5a for Mdm2 and Murf1), 200 nM ubiquitin and 200 nM S5a. The pre-mix was added to 0.2 mg/mL of E3 ligase and incubated at 37° C. for 60 minutes. Samples were run on SDS-PAGE and assessed by Western blotting using monoclonal antibody to S5a (BioMol).

S5a [2] = experiment: ubiquitination assay of E3 ligases using S5a as the substrate; assay type: biochemical; settings: 0.2 mg/mL E3, 200 nM S5a, 1 hour at 37° C., Western blot
Experimental: For each E3 ligase, a ubiquitination assay using S5a as the substrate was carried out. Briefly, the ubiquitination reaction contained 50 nM E1, 1 mM MgATP, 5 μM UbcH7, 0.2 mg/mL E3, 200 nM ubiquitin, and 200 nM S5a. Ubiquitination reactions were incubated for 1 hour at 37° C. and samples were taken at time 0, 30′ and 60′. Samples were run on SDS-PAGE, transferred to immobilon and Western blotted using monoclonal antibody to S5a (BioMol).

Molecule | Thermal Denaturation Temperature (temperature at which approximately 50% of activity was lost) (S5a [1]) | Thermal Denaturation Temperature (temperature at which approximately 50% of activity was lost) (S5a [1]; listed as E6AP) | Ubiquitinated S5a? (S5a [2]) | Ubiquitinated S5a? (S5a [2]; listed as Siah2) | Ubiquitinated S5a? (S5a [2]; listed as CHIP) | Thermal Denaturation Temperature (temperature at which approximately 50% of activity was lost) (S5a [1]; listed as Murf1) | S5a ubiquitination activity after thermal pre-incubation (S5a [1]; E3 pre-incubated 90 minutes at 4, 37, 45, 50 and 60° C.)
GST-E6AP: GST fusion of Human papillomavirus E6-associated protein, HECT E3 ligase | 41 °C | 41 °C | Yes |  |  |  | 
B1 | 49 °C |  | Yes |  |  |  | 
B2 |  |  | Yes (low) | very low activity |  |  | 
B3 |  |  | Yes |  | reasonable activity |  | 
B4 | 60 °C |  | Yes |  |  | 60 °C | 
B5 | 37 °C |  | Yes |  |  |  | did not show any activity when pre-incubated at temperatures higher than 4 °C; also recorded: lose activity following pre-incubation at any temperature except 4 °C
